Source: the supplement of paper PMC11865577

How the values were obtained:
Test in all cases: pull-down binding Z-score (relative to library population); higher = stronger binding
[1] = tested on: TO-3-N3-2 (biotin conjugate); conditions: RNA library: Library-2
Summary of the method: (§1)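 Biotin-conjugated small molecule (100 pmol) on streptavidin beads was incubated with 1 μg of heat-folded Cy5- or Cy3-end-labelled RNA library in phosphate/NaCl/KCl buffer at 25 °C for 60 min. Following three washes, RNA was eluted with hot SDS and hybridised at 55.5 °C for 20 h to a DNA barcode microarray. The binding value is a Z-score computed from the library mean and standard deviation, after subtraction of beads without compound and averaging of barcoded replicate probes with the highest and lowest excluded.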

[2] = tested on: TO-3-N3 (biotin conjugate); conditions: RNA library: Library-2
Summary of the method: as §1

[3] = tested on: G-clamp-N3 (biotin conjugate); conditions: RNA library: Library-1 (pre-miRNA loops + repeats)
Summary of the method: as §1

[4] = tested on: TO-N3-2 (biotin conjugate); conditions: RNA library: Library-2
Summary of the method: as §1

TO-N3 (biotin conjugate) = conditions: RNA library: Library-2
Summary of the method: as §1

| Sequence | pull-down binding Z-score [1] | pull-down binding Z-score [2] | pull-down binding Z-score [3] | pull-down binding Z-score [4] | pull-down binding Z-score (TO-N3 (biotin conjugate)) |
| --- | --- | --- | --- | --- | --- |
| GACUUUUCUAUUUUCCAAAAGC [hsa-mir-423] | -0.142 | -0.475 | -0.657 | -0.573 | -0.568 |
| CAGUGUUAGCUCCAGAAGCAUUG [hsa-mir-3170] | -0.107 | 0.0378 | 1.14 | 0.644 | 0.171 |
| UGCUUGACCUGAAUGCUACAAGGCA [hsa-mir-103b-2] | -0.122 | -0.324 | -1.12 | -0.0962 | -0.303 |
| AAGAGGUAAGAAGAAGUGAAGCCCUCUU [hsa-mir-4778] | 0.35 | -0.393 | -0.836 | 0.281 | -0.292 |
| CUCUGGUCAGUUGGGAGUCUGAG [hsa-mir-143] | -0.014 | -0.346 | 0.448 | 0.949 | -0.0514 |
| CUUUCUGUGACUUUAAAAGUAAG [hsa-mir-302b] | -0.355 | -0.538 | -0.444 | -0.999 | -0.844 |
| AUAGUUUAGAAUUACAUCAAGGGAGAUAACUGU [hsa-let-7a-2] | 0.285 | -0.34 | 0.705 | -0.163 | -0.695 |
| UUUCUCUUAUGUGAAAAAAAAGAAG [hsa-mir-525] | -0.174 | -0.283 | -1.41 | -0.745 | -0.463 |
| UUCAUGUUCACUGAAAGGUAGAUUUUAAAAACAUGAA [hsa-mir-4790] | 0.268 | -0.15 | -0.0488 | -0.575 | -0.371 |
| GUUGUUGUGAGCAAUAGUAAGGAAGCAAU [hsa-mir-34a] | 0.501 | 0.276 | 0.984 | 0.486 | 0.423 |
| UGCAGUUCUGUUGGGUGACAGCA [hsa-mir-6499] | -0.0248 | 0.239 | -0.982 | 0.485 | 0.342 |
| GAUUGAAGUUGAAUAGUGC [hsa-mir-3161] | 0.274 | -0.231 | 0.429 | 0.0514 | -0.125 |
| GCUUUUCACCUGUGAUCCCAGGAGAGGAAGC [hsa-mir-646] | -0.0622 | -0.299 | -0.741 | 0.422 | -0.0302 |
| GAGUUUGGGAUUUGAAAAAACC [hsa-mir-181a-2] | 0.292 | 0.253 | 0.843 | 0.793 | 0.394 |
| CCAUCAAGCCCCACCAGAAGGUGGAGGCCCAGGUGAG [hsa-mir-4721] | -0.479 | 0.105 | -1.36 | 0.864 | 0.16 |
| UGGCACAGAUCCAAUACCUUCUGUCCCC [hsa-mir-6810] | -0.361 | 0.0686 | -0.424 | 0.171 | -0.118 |
| UUUCUUAAAUUUUAUAUAUUGGAA [hsa-mir-1284] | -0.0723 | 0.193 | -0.71 | -1.11 | -0.124 |
| GUUGGGAUUGAGUUUUGAACUCGGC [hsa-mir-196a-2] | -0.0929 | 0.00707 | 0.29 | -0.0161 | -0.0442 |
| AAGAGGAGGUGGUUGUUUUCCUCCUCUU [hsa-mir-627] | 0.625 | 0.432 | -0.0833 | 1.15 | 0.944 |
